# Test results: patent US8357523B2, “Beta-glucosidase variant enzymes and related polynucleotides” (Codexis, Inc., priority 2009, dated 2013)
# Columns and labels:
# Assay type in all cases: biochemical
# [1] = Activity profile at different temperatures and pH using cellobiose (10 g/L) as substrate
# Description: β-glucosidase activity was also determined using a cellobiose assay, which used cellobiose as substrate. In a total volume of 100 μL, 25 μL clear media supernatant containing CelA enzyme was added to 10 g/L cellobiose (Fluka Cat. No. 22150, Sigma-Aldrich, Inc., St. Louis, Mo.) in 100 mM sodium phosphate buffer (pH 6-7) or sodium acetate buffer (pH 5-5.5). The reaction was incubated at 45-70° C. for an appropriate time (25 minutes to overnight depending on the enzyme concentration) while shaking. Glucose production was determined using an enzymatic glucose assay (K-GLUC, Megazyme, Ireland). 10 μl of each reaction was added to 190 μl GOPOD reagent (supplied as part of the K-GLUC assay kit). The reaction was incubated at 45° C. for 20 minutes and the absorbance of the solution was measured at 510 nm. The GOPOD reagent contains 50 mM Potassium phosphate buffer pH7.4, 0.011M p-hydroxybenzoic acid, 0.008% w/v sodium azide, glucose oxidase (>12,000 U/L), peroxidase (>650 U/L) and 80 mg/L 4-aminoantipyrine. The glucose oxidase enzyme in the reagent reacts with any glucose present in the sample and produces hydrogen peroxide which then reacts with the 4-aminoantipyrine to produce a quinoneimine dye in quantities proportionate with the amount of glucose present and can be measured spectrophotometrically at 510 nm. Detectable β-glucosidase activity was observed under high throughput screening conditions (i.e., pH 7, 50° C.).
# The native CelA activity profile was investigated at different temperatures (40-55° C.) and pH (5.0-8.0) using cellobiose (10 g/L) as a substrate. The experimental and analytical procedures are described in Example 5.
# The activity profiles for Variant Nos. 264, 366, 391, 463, and 529 were determined at different temperatures and pH using cellobiose (10 g/L) as a substrate. The experimental and analytical procedures are described in Example 5, incubating the variant with cellobiose at temperatures in the range of 45-80. The results are depicted in FIGS. 7-11. […] The temperature and pH profile for this variant is depicted in FIG. 7. […] The temperature and pH profile for this variant is depicted in FIG. 8. […] The temperature and pH profile for this variant is depicted in FIG. 9. […] (with the pH 6 optimum determined by extrapolation). The temperature and pH profile for this variant is depicted in FIG. 10. […] The temperature and pH profile for this variant is depicted in FIG. 11.
# [2] = High throughput cellobiose assay: fold improvement in cellobiase activity of CelA variants over a control enzyme (Tables 2A-2D, 3, 5, 6, 7); details: shown by improvement over a chain of controls, of which Variant No. 5 was directly compared to the wildtype
# [3] = Saccharification of microcrystalline cellulose by Trichoderma reesei whole cellulase supplemented with β-glucosidase; details: 1 g/L TRWC alone or 25% of TRWC substituted with the β-glucosidase; 200 g/L Avicel, 100 g/L xylose, pH5.5, 55° C., 48 hours
# Source text: FIG. 12 illustrates the impact of supplementing a commercially available Trichoderma reesei whole cellulose (“TRWC”) mixture with a CelA variant of the present invention. Compositions containing TRWC were supplemented with β-glucosdiases CelA Variant No. 264 (“Cel var1”), CelA Variant No. 366 (“Cel var2”), and a commercially available Aspergillus niger β-glucosidase (“ANBG”) in a ratio of 3:1 TRWC to β-glucosidase. The effectiveness of each composition at hydrolyzing microcrystalline cellulose was evaluated as described in Example 15. A plot of glucose and cellobiose concentration (g/L) vs. cellulase composition is depicted. The control composition was TRWC with no added β-glucosidase.
# The impact of adding a CelA variant of the present invention to commercially available cellulose mixtures and microcrystalline cellulose, Avicel™, was evaluated. In the test reactions, 1 g/L Trichoderma reesei whole cellulose (“TRWC”, Sigma catalog #C85456-10KU (ATCC 26921)) was used to convert 200 g/L of the microcrystalline cellulose Avicel™ (200 mM Sodium acetate; 100 g/L xylose, pH5.5 and 55° C.). The amount of glucose was measured after 48 hours of reaction. As a comparison, 25% of the TRWC was replaced with a β-glucosidase: Variant No. 264 (“Cel var1”), Variant No. 366 (“Cel var2”), or with the commercially available cellobiase, Aspergillus niger beta-glucosidase (“ANBG”, Sigma catalog #49291-1G). […]
molecule,measurement,setting,value
"Variant No. 391 (protein, catalytic domain) SARITQEGAAPAAMLHPEKWPRPATQRLIDPAVEKRVDALLKQLSVEEKVGQVIQGDIGTITPEDLRKYPLGAILAGGDSGPNGDDRAPPKEWLDLADAFYRVSLEKRPGHTPIPVLFGIDAVHGHNNIGSATIFPHNIALGMTRDPELLRRIGEVTAEEMAATGIDWTFAPALSVPRDDRWGRTYEGFSEDPEIVASYSAAYVEGFQGKYGSKDFMAPGRAVACAKHFLADGGTDQGRDQGDARISEDELIRIHNAGYPPAIDAGVLTVMASFSSWQGIKHHGHKQLLTDVLKGQMGFNGFIVGDWNAHDQVPGCTKFNCPTSLIAGLDMYMAADSWKQLYENTLAQVKDGTIPMARLDDAVRRILRVKVLAGLFEKPAPKDRPGLPGLETLGSPEHRAVGREAVRKSLVLLKNDKGTLPLSPKARVLVAGDGADNIGKQSGGWTISWQGTGNRNDEFPGATSILGGIRDAVADAGGSVEFDVAGQYKTKPDVAIVVFGEEPYAEFRGDVETLEYQPDQKQDLTLLKKLKDQGIPVVAVFLSGRPMWVNPELNASDAFVAAWLPGTEGGGVADVLFTDKAGKVQHDFAGKLSYSWPRTAAQTTVNRGDADYNPLFAYGYGLTYKDKSKVGTLPEESGVPAEARQN",pH of optimum activity,[1],5.5 pH
same,temperature of optimum activity,[1],69 °C
same,"activity (e.g., thermoactivity) over the wildtype A. irakense β-glucosidase, demonstrated indirectly",[2],improved activity
T2A + A5T + I14M + N79D + G127N + A143M + H145R + V159E + A198S + V207F + F211Y + I222A + S225C + Q508R + A525T-des[A647-L663] (protein) SAAITQEGAAPAAMLHPEKWPRPATQRLIDPAVEKRVDALLKQLSVEEKVGQVIQGDIGTITPEDLRKYPLGSILAGGDSGPNGDDRAPPKEWLDLADAFYRVSLEKRPGHTPIPVLFGIDAVHGHNNIGSATIFPHNIALGMTRDPELLRRIGEVTAEEMAATGIDWTFAPALSVVRDDRWGRTYEGFSEDPEIVASYSAAIVEGFQGKYGSKDFMAPGRAVACAKHFLADGGTDQGRDQGDARISEDELIRIHNAGYPPAIDAGVLTVMASFSSWQGIKHHGHKQLLTDVLKGQMGFNGFIVGDWNAHDQVPGCTKFNCPTSLIAGLDMYMAADSWKQLYENTLAQVKDGTIPMARLDDAVRRILRVKVLAGLFEKPAPKDRPGLPGLETLGSPEHRAVGREAVRKSLVLLKNDKGTLPLSPKARVLVAGDGADNIGKQSGGWTISWQGTGNRNDEFPGATSILGGIRDAVADAGGSVEFDVAGQYKTKPDVAIVVFGEEPYAEFRGDVETLEYQPDQKQDLTLLKKLKDQGIPVVAVFLSGRPMWVNPELNASDAFVAAWLPGTEGGGVADVLFTDKAGKVQHDFAGKLSYSWPRTAAQTTVNRGDADYNPLFAYGYGLTYKDKSKVGTLPEESGVPAEARQN,cellobiose and glucose combined yielded in saccharification reaction,[3],comparable results
"Variant No. 463 (protein, catalytic domain) SARITQEGAAPAAMLHPEKWPRPATQRLIDPAVEKRVDALLKQLSVEEKVGQVIQGDIGTITPEDLRKYPLGAILAGGDSGPNGDDRAPPKEWLDLADAFYRVSLEKRPGHTPIPVLFGIDAVHGHNNIGSATIFPHNIALGMTRDPELLRRIGEVTAEEMAATGIDWNFAPALSVPRDDRWGRTYEGFSEDPEIVASYSAPYVEGFQGKYGSKDFMAPGRAVACAKHFLADGGTDQGRDQGDARISEDELIRIHNAGYPPAIDAGVLTVMLSFSSWQGIKHHGHKRLLTDVLKGQMGFNGFIVGDWNAHGQVPGCTKFNCPTSLIAGLDMYMAADSWKQLYENTLAQVKDGTIPMARLDDAVRRILRVKVLAGLFEKPAPKDRPGLPGLETLGSPEHRAVGREAVRKSLVLLKNDKGTLPLSPKARVLVAGDGADNIGKQSGGWTISWQGTGNRNDEFPGATSILGGIRDAVADAGGSVEFDVAGQYKTKPDVAIVVFGEEPYAEFRGDVGTLEYQPDQKQDLTLLKKLKDQGIPVVAVFLSGRPMWVNPELNASDAFVAAWLPGTEGGGVADVLFTDKAGKVQHDFAGKLSYSWPRTAAQTTVNRGDADYNPLFAYGYGLTYKDKSKVGTLPEESGVPAEARQN",temperature of optimum activity,[1],69 °C
same,pH of optimum activity (determined by extrapolation),[1]; pH optimum determined by extrapolation,6 pH
same,"activity (e.g., thermoactivity) over the wildtype A. irakense β-glucosidase, demonstrated indirectly",[2],improved activity
